The text below walks through data of US20240400708A1.

As a reminder, the Kd is the concentration at which binding is half-saturated. Read a low Kd as higher affinity.

In assay [1] the target is feline FcRn complex (FcRn-α subunit and β-microglobulin) (feline). The assay can be described thus: SPR (Biacore), FcRn on SA chip, pH 6. In general terms: SPR reads the build-up and loss of mass on a sensor chip optically.
Assay [2] has the same target. The assay can be described thus: SPR (Biacore), FcRn on SA chip, pH 7.4.
Assay [3] concerns the target feline FcRn complex (FcRn-α subunit and β-microglobulin), biotin labeled (feline). As to the kind of experiment: SPR, pH 6.
Assay [4] has the same target. As to the kind of experiment: SPR, pH 7.4.

Numbering of substitutions follows the chain as printed. Names may count otherwise.

Take “feline IgG1a mutant ID No. 366: S252Y, S434R, E430I (antibody)”: the Kd was determined as 0.322 nM in assay [1] and 26.1 nM in assay [2].

Consider “feline IgG1a mutant ID No. 365: S252Y, S434R, E430I (antibody)”, for which the values for the Kd in assay [1] and in assay [2] were 0.296 nM and 28.9 nM, respectively. As for “feline IgG1a mutant ID No. 260: S252Y, S254T, T256E (antibody)”, the figures for the Kd in assay [1] and in assay [2] were 13.2 nM and 66.5 nM, respectively. Turning to “feline IgG1a mutant ID No. 278: S252R, S434H, Q311W (antibody)”, the Kd in assay [1] is 5.45 nM; in assay [2] it was 5910 nM. On the same counts, the results for “feline IgG1a mutant ID No. 357: S252Y, S434R, A431K (antibody)” are 0.769 nM and 25.9 nM. Turning to “feline IgG1a mutant ID No. 358: S252Y, S434R, A431K (antibody)”, the equilibrium dissociation constant (Kd) in assay [1] came to 0.748 nM; in assay [2], 28.3 nM.

B1: feline IgG1a S252H/S434L (antibody, part only; not given: Variable domains, not shown: another chain or arm of the molecule)
constant: ASTTAPSVFPLAPSCGTTSGATVALACLVLGYFPEPVTVSWNSGALTSGVHTFPAVLQASGLYSLSSMVTVPSSRWLSDTFTCNVAHPPSNTKVDKTVRKTDHPPGPKPCDCPKCPPPEMLGGPSIFIFPPKPKDTLHISRTPEVTCLVVDLGPDDSDVQITWFVDNTQVYTAKTSPREEQFNSTYRVVSVLPILHQDWLKGKEFKCKVNSKSLPSPIERTISKAKGQPHEPQVYVLPPAQEELSRNKVSVTCLIKSFHPPDIAVEWEITGQPEPENNYRTTPPQLDSDGTYFVYSKLSVDRSHWQRGNTYTCSVSHEALHLHHTQKSLTQSPGK
With B1, the Kd in assay [3] amounted to 6.08 nM; in assay [4] it was 3.79 nM.

B2: feline IgG1a S252M/S428M/S434N (antibody, part only; not given: Variable domains, not shown: another chain or arm of the molecule)
constant: B1 constant with H138M, S316M, L322N
In the case of B2, the Kd in assay [3] was found to be 8.51 nM; in assay [4], 15.3 nM.

B3: feline IgG1a Q311H (antibody, part only; not given: Variable domains, not shown: another chain or arm of the molecule)
constant: B1 constant with H138S, Q197H, L322S
As for B3, the values for the Kd in assay [3] and in assay [4] were 5.84 nM and 93.7 nM, respectively.

B4: feline IgG1a mutant ID No. 248: S428M, D312P (antibody, part only; not given: Variable domains, not shown: another chain or arm of the molecule)
constant: B1 constant with H138S, D198P, S316M, L322S
With B4, the Kd in assay [1] worked out at 5.7 nM; in assay [2], 23.7 nM.

B5: feline IgG1a D399M (antibody, part only; not given: Variable domains, not shown: another chain or arm of the molecule)
constant: B1 constant with H138S, D287M, L322S
As for B5, the Kd in assay [3] is 5.33 nM; in assay [4] it was 46.8 nM.

B6: feline IgG1a mutant ID No. 350: S252Y, S428M, S434F, Q311M (antibody, part only; not given: Variable domains, not shown: another chain or arm of the molecule)
constant: B1 constant with H138Y, Q197M, S316M, L322F
The molecule B6 had a Kd in assay [2] of 4.89 nM.

B7: feline IgG1a S252Y/S428M (antibody, part only; not given: Variable domains, not shown: another chain or arm of the molecule)
constant: B1 constant with H138Y, S316M, L322S
Regarding B7, the Kd in assay [3] was determined as 2.58 nM; in assay [4], 39.2 nM.

B8: feline IgG1a mutant ID No. 247: S252Y, S428M, S434Y (antibody, part only; not given: Variable domains, not shown: another chain or arm of the molecule)
constant: B1 constant with H138Y, S316M, L322Y
Consider B8, for which the Kd stood at 0.0902 nM in assay [1] and 7.65 nM in assay [2].

B9: feline IgG1a S252Y/S428M/S434F (antibody, part only; not given: Variable domains, not shown: another chain or arm of the molecule)
constant: B1 constant with H138Y, S316M, L322F
B9: the Kd was 0.0207 nM in assay [3] and 9.13 nM in assay [4].

B10: feline IgG1a S252H/S434Y (antibody, part only; not given: Variable domains, not shown: another chain or arm of the molecule)
constant: B1 constant with L322Y
With B10, the Kd in assay [3] came out at 0.14 nM; in assay [4], 12.5 nM.

B11: feline IgG1a L309G (antibody, part only; not given: Variable domains, not shown: another chain or arm of the molecule)
constant: B1 constant with H138S, L195G, L322S
Take B11: the Kd in assay [3] was 9.12 nM; in assay [4] it was 54.5 nM.

B12: feline IgG1a S252Y/S428M/D312P (antibody, part only; not given: Variable domains, not shown: another chain or arm of the molecule)
constant: B1 constant with H138Y, D198P, S316M, L322S
For the molecule B12, the Kd in assay [3] was 0.796 nM; in assay [4], 25.3 nM.

B13: feline IgG1a S252M/S434N (antibody, part only; not given: Variable domains, not shown: another chain or arm of the molecule)
constant: B1 constant with H138M, L322N
For B13, the Kd in assay [3] is 14.8 nM; in assay [4] it was 33.8 nM.

B14: feline IgG1a mutant ID No. 250: S428M, Q311W (antibody, part only; not given: Variable domains, not shown: another chain or arm of the molecule)
constant: B1 constant with H138S, Q197W, S316M, L322S
In the case of B14, the Kd in assay [1] stood at 5.56 nM; in assay [2], 33.2 nM.

B15: feline IgG1a L309I (antibody, part only; not given: variable domains, not shown: another chain or arm of the molecule)
constant: B1 constant with H138S, L195I, L322S
With B15, the equilibrium dissociation constant (Kd) is 6.81 nM in assay [3] and 4530 nM in assay [4].

B16: feline IgG1a S252Y/S428M/Q311W (antibody, part only; not given: Variable domains, not shown: another chain or arm of the molecule)
constant: B1 constant with H138Y, Q197W, S316M, L322S
As to B16, the Kd in assay [3] came out at 0.506 nM; in assay [4], 18.8 nM.

B17: feline IgG1a D312R (antibody, part only; not given: Variable domains, not shown: another chain or arm of the molecule)
constant: B1 constant with H138S, D198R, L322S
Regarding B17, the Kd in assay [3] is 6.91 nM; in assay [4] it was 25 nM.

B18: feline IgG1a mutant ID No. 353: S252Y, S428M, S434F, S254V (antibody, part only; not given: Variable domains, not shown: another chain or arm of the molecule)
constant: B1 constant with H138Y, S140V, S316M, L322F
In assay [2], B18 displayed a Kd of 6.68 nM.

B19: feline IgG1a mutant ID No. 249: S428M, L314K (antibody, part only; not given: variable domains and light chain, not shown: another chain or arm of the molecule; small tags and cut ends)
constant: B1 constant with H138S, L200K, S316M, L322S
B19: the Kd was found to be 0.978 nM in assay [1] and 19300 nM in assay [2].

B20: feline IgG1a D399V (antibody, part only; not given: Variable domains, not shown: another chain or arm of the molecule)
constant: B1 constant with H138S, D287V, L322S
Consider B20, for which the Kd in assay [3] worked out at 8.29 nM; in assay [4] it was 2880 nM.

B21: feline IgG1a Q311M (antibody, part only; not given: Variable domains, not shown: another chain or arm of the molecule)
constant: B1 constant with H138S, Q197M, L322S
For the molecule B21, the Kd in assay [3] is 4.97 nM; in assay [4], 5100 nM.

B22: feline IgG1a Q311I (antibody, part only; not given: Variable domains, not shown: another chain or arm of the molecule)
constant: B1 constant with H138S, Q197I, L322S
Consider B22, for which the Kd in assay [3] is 7 nM; in assay [4] it was 77.1 nM.

B23: feline IgG1a S252M/S428M/S434N/H436Y (antibody, part only; not given: Variable domains, not shown: another chain or arm of the molecule)
constant: B1 constant with H138M, S316M, L322N, H324Y
As for B23, the Kd in assay [3] amounted to 20.5 nM; in assay [4], 28.7 nM.

B24: feline IgG1a S252H/S434P (antibody, part only; not given: Variable domains, not shown: another chain or arm of the molecule)
constant: B1 constant with L322P
For the molecule B24, the dissociation constant (Kd) is 9.32 nM in assay [3] and 12.8 nM in assay [4].

B25: feline IgG1a mutant ID No. 246: S252Y, S428M, S434W (antibody, part only; not given: Variable domains, not shown: another chain or arm of the molecule)
constant: B1 constant with H138Y, S316M, L322W
On to B25, for which the results for the Kd in assay [1] and in assay [2] were 0.0406 nM and 7.91 nM, respectively.

B26: feline IgG1a mutant ID No. 251: S428M, Q311Y (antibody, part only; not given: Variable domains, not shown: another chain or arm of the molecule)
constant: B1 constant with H138S, Q197Y, S316M, L322S
As to B26, the figures for the Kd in assay [1] and in assay [2] were 5.83 nM and 20.3 nM, respectively.

B27: feline IgG1a Y404Q (antibody, part only; not given: Variable domains, not shown: another chain or arm of the molecule)
constant: B1 constant with H138S, Y292Q, L322S
Regarding B27, the Kd came to 9.96 nM in assay [3] and 9940 nM in assay [4].

B28: feline IgG1a S252M/S428M (antibody, part only; not given: Variable domains, not shown: another chain or arm of the molecule)
constant: B1 constant with H138M, S316M, L322S
For B28, the Kd worked out at 7.27 nM in assay [3] and 19.5 nM in assay [4].

B29: feline IgG1a S252Y/S428M/Q311Y (antibody, part only; not given: Variable domains, not shown: another chain or arm of the molecule)
constant: B1 constant with H138Y, Q197Y, S316M, L322S
On to B29, for which the equilibrium dissociation constant (Kd) in assay [3] was determined as 2.4 nM; in assay [4] it was 39.9 nM.

B30: feline IgG1a S434F (antibody, part only; not given: Variable domains, not shown: another chain or arm of the molecule)
constant: B1 constant with H138S, L322F
On to B30, for which the equilibrium dissociation constant (Kd) in assay [3] was 0.745 nM; in assay [4], 21 nM.

B31: feline IgG1a mutant ID No. 323: S428Y, D312P, S434Y, D399M, D401R, T403R (antibody, part only; not given: Variable domains, not shown: another chain or arm of the molecule)
constant: B1 constant with H138S, D198P, D287M, D289R, T291R, S316Y, L322Y
Consider B31, for which the Kd in assay [2] came out at 1300 nM.

B32: feline IgG1a S252Y/S428M/S434L (antibody, part only; not given: Variable domains, not shown: another chain or arm of the molecule)
constant: B1 constant with H138Y, S316M
In the case of B32, the Kd in assay [3] stood at 6.91 nM; in assay [4] it was 28.9 nM.

B33: feline IgG1a S252H/S434W (antibody, part only; not given: Variable domains, not shown: another chain or arm of the molecule)
constant: B1 constant with L322W
As for B33, the figures for the dissociation constant (Kd) in assay [3] and in assay [4] were 0.469 nM and 31.1 nM, respectively.

B34: feline IgG1a G402R (antibody, part only; not given: Variable domains, not shown: another chain or arm of the molecule)
constant: B1 constant with H138S, G290R, L322S
For B34, the Kd worked out at 6.1 nM in assay [3] and 1200 nM in assay [4].

B35: feline IgG1a S252Y/S428M/L314K (antibody, part only; not given: Variable domains, not shown: another chain or arm of the molecule)
constant: B1 constant with H138Y, L200K, S316M, L322S
Regarding B35, the results for the Kd in assay [3] and in assay [4] were 2.13 nM and 25 nM, respectively.

B36: feline IgG1a Q311F (antibody, part only; not given: Variable domains, not shown: another chain or arm of the molecule)
constant: B1 constant with H138S, Q197F, L322S
For the molecule B36, the Kd in assay [3] came to 8.85 nM; in assay [4], 1370 nM.

B37: feline IgG1a Q311K (antibody, part only; not given: Variable domains, not shown: another chain or arm of the molecule)
constant: B1 constant with H138S, Q197K, L322S
Regarding B37, the Kd worked out at 4.85 nM in assay [3] and 1750 nM in assay [4].

B38: feline IgG1a S252Y/S428M/S434P (antibody, part only; not given: Variable domains, not shown: another chain or arm of the molecule)
constant: B1 constant with H138Y, S316M, L322P
For the molecule B38, the figures for the Kd in assay [3] and in assay [4] were 4.86 nM and 44.4 nM, respectively.

B39: feline IgG1a Q311R (antibody, part only; not given: Variable domains, not shown: another chain or arm of the molecule)
constant: B1 constant with H138S, Q197R, L322S
With B39, the Kd stood at 4.56 nM in assay [3] and 67.2 nM in assay [4].
